Series [1] deals with recombinant human Notch3 encompassing aa 40-467 (N3EGF1-11-Fc) (human) (UniProt Q9UM47). The experiment in a line: ELISA; solid-phase binding assay: 1 μg N3EGF1-11-Fc coated on Maxisorp plates in PBS overnight at 4°C, blocked with PBS/1% BSA; 50 μL conditioned supernatant of transfected HEK293T cells bound 1 h at room temperature; detection with anti-V5 or anti-LTBP-1 and anti-mouse-HRP; IgG1-Fc as control ligand.

Series [2] deals with the molecule itself. The experiment in a line: scanning for intensely fluorescent targets (SIFT); purified proteins labelled with different fluorescent dyes, pre-cleared at 100,000 g, incubated pairwise in solution; 64 nM LTBP-1 variants, 160 nM N3EGF1-5; confocal single-particle measurement after 24 h.

On to “full-length LTBP-1S (short human isoform of latent TGF-β binding protein 1, 1395 aa) with N-terminal HA tag and C-terminal V5-His tag (natural protein)”, for which the fold binding over the control ligand IgG-Fc in series [1] came to 4.9 fold.

B1: LTBP-1ΔN containing a C-terminal V5-His tag (LTBP-1ΔN_V5) (domain or fragment, human, UniProt Q14766-2 528-1395, looked up)
chain: APEASTSSASQVIAPTQVTEINECTVNPDICGAGHCINLPVRYTCICYEGYRFSEQQRKCVDIDECTQVQHLCSQGRCENTEGSFLCICPAGFMASEEGTNCIDVDECLRPDVCGEGHCVNTVGAFRCEYCDSGYRMTQRGRCEDIDECLNPSTCPDEQCVNSPGSYQCVPCTEGFRGWNGQCLDVDECLEPNVCANGDCSNLEGSYMCSCHKGYTRTPDHKHCRDIDECQQGNLCVNGQCKNTEGSFRCTCGQGYQLSAAKDQCEDIDECQHRHLCAHGQCRNTEGSFQCVCDQGYRASGLGDHCEDINECLEDKSVCQRGDCINTAGSYDCTCPDGFQLDDNKTCQDINECEHPGLCGPQGECLNTEGSFHCVCQQGFSISADGRTCEDIDECVNNTVCDSHGFCDNTAGSFRCLCYQGFQAPQDGQGCVDVNECELLSGVCGEAFCENVEGSFLCVCADENQEYSPMTGQCRSRTSTDLDVDVDQPKEEKKECYYNLNDASLCDNVLAPNVTKQECCCTSGVGWGDNCEIFPCPVLGTAEFTEMCPKGKGFVPAGESSSEAGGENYKDADECLLFGQEICKNGFCLNTRPGYECYCKQGTYYDPVKLQCFDMDECQDPSSCIDGQCVNTEGSYNCFCTHPMVLDASEKRCIRPAESNEQIEETDVYQDLCWEHLSDEYVCSRPLVGKQTTYTECCCLYGEAWGMQCALCPLKDSDDYAQLCNIPVTGRRQPYGRDALVDFSEQYTPEADPYFIQDRFLNSFEELQAEECGILNGCENGRCVRVQEGYTCDCFDGYHLDTAKMTCVDVNECDELNNRMSLCKNAKCINTDGSYKCLCLPGYVPSDKPNYCTPLNTALNLEKDSDLE
modifications: fluorescent dye label (dye and site not stated)
notes: numbers count on: the short isoform of 1395 aa; source: HEK293E, purified (metal-ion matrix, via His tag); not shown: V5, C-terminal, kept; His, C-terminal, kept
Consider B1, for which, in series [2], the binding result was “binds”.

Source of the values: article PMC4243959, “Sequestration of latent TGF-β binding protein 1 into CADASIL-related Notch3-ECD deposits” (Acta Neuropathologica Communications, 2014).
